Test results taken from patent US20040048243A1, “Methods and compositions for in vitro targeting” (priority 2003, published 2004).

How the values were obtained:
MDA-MB435 cells = test: Inhibition of RGD-4C-β-gal phage transduction by synthetic peptides; type: cell-based, human; conditions: target cells pre-incubated with synthetic peptide; dose-dependent
Experimental: (§1) In the peptide inhibition experiments, MDA-MB435 cells were cultured on 12-well plates and then incubated with 10 μg of RGD-4C peptide (SEQ ID NO: 166) or control peptides (CARAC, SEQ ID NO: 169 or CKDRFERC, SEQ ID. NO: 59) in normal growth media for 30 minutes. KS1767 cells were grown on 12-well plates and then incubated with 40 μg CTTHWGFTLC (SEQ D NO: 167) or control peptides in normal growth media for 30 minutes. After this the growth media were replaced by 500 μl of MEM containing 2% FCS and 5×10^10 transducing units (TU) of either RGD-4C-β-gal, HWGF-β-gal, or control fd-β-gal phage. Phage vectors were incubated on peptide-treated cells (three hours at 37° C., 5% CO2) followed by a media change to MEM plus 10% FCS. Transduced cells were then maintained in a cell incubator for 72 hours (37° C., 5% CO2).
(§2) In the peptide inhibition assays, β-gal activity in cell lysates was detected by the Galacto-Star® chemiluminescent reporter gene system (Tropix, Bedford, Mass.) according to the manufacturer's protocol. […] Cells were analyzed for GFP gene expression at 72 hours post infection. For GFP detection, cells were analyzed by fluorescence activated cell sorting (FACS) in a FACScan (Becton-Dickinson, San Jose, Calif.) or counted and photographed under a fluorescence microscope (Nikon).

KS1767 cells = test: Inhibition of HWGF-β-gal phage transduction by synthetic peptides; type: cell-based, human; conditions: target cells pre-incubated with synthetic peptide; dose-dependent
Experimental: as §1, §2

Thrombospondin 1 (TSP-1) = molecular target: T1, Thrombospondin 1 (TSP-1) (Homo sapiens, UniProt P07996); test: Protein-protein interaction ELISA: rhAngiostatin binding to coated protein; conditions: TSP-1, positive control
T1 construct: purchased Calbiochem, San Diego, Calif; 605225
Experimental: (§3) To assess protein-protein interactions, 100 ng/well of protein was coated in triplicate in 96-well plates. The plates were dried at 37° C., blocked with PBS and 3% BSA, and incubated with 10 μg/ml of rhAngiostatin in PBS+1% BSA for three hours at RT. The wells were washed three times with PBS, 3% BSA, 0.01% Tween 20 before incubation with anti-rhAngiostatin antibody (R&D Systems, Inc #AF226) at 1 μg/ml for 1 hour at RT. The wells were then washed three times with PBS, 3% BSA, 0.01% Tween 20 and incubated with […] anti-goat antibody. After washing 3 times with PBS, 0.01% Tween 20 and once with PBS, the wells were developed with p-nitrophenyl phosphate. Binding of alkaline phosphate conjugate was detected colorimetrically at […]. using an ELISA microplate reader.

LN (laminin) = test: as above
Experimental: as §3

VN (vitronectin) = molecular target: T2, VN (vitronectin) (Homo sapiens, UniProt P04004); test: as above
T2 sequence (P04004 20-478): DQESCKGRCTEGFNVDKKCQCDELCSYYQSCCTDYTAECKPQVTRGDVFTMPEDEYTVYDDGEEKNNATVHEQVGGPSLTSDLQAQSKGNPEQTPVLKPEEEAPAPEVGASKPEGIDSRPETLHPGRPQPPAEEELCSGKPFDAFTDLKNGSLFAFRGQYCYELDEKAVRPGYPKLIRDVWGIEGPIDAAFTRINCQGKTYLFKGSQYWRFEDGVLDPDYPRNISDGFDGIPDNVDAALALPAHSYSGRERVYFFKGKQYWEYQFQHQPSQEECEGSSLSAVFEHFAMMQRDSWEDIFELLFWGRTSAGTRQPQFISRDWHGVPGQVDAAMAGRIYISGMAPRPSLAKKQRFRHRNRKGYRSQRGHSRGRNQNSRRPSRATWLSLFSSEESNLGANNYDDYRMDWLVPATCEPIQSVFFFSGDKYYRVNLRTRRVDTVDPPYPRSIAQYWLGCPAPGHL
Experimental: as §3

[1] = molecular target: T3, HGF (hepatocyte growth factor) (Homo sapiens, UniProt P14210); test: as above
T3 construct: purchased Calbiochem, San Diego, Calif; 375228
Experimental: as §3

CD13 (Aminopeptidase N) = molecular target: T4, CD13 (Aminopeptidase N) (Sus scrofa, UniProt P15145); test: as above
T4 construct: purchased Sigma, St Louis, Mo; L-9776
T4 sequence (P15145 1-963): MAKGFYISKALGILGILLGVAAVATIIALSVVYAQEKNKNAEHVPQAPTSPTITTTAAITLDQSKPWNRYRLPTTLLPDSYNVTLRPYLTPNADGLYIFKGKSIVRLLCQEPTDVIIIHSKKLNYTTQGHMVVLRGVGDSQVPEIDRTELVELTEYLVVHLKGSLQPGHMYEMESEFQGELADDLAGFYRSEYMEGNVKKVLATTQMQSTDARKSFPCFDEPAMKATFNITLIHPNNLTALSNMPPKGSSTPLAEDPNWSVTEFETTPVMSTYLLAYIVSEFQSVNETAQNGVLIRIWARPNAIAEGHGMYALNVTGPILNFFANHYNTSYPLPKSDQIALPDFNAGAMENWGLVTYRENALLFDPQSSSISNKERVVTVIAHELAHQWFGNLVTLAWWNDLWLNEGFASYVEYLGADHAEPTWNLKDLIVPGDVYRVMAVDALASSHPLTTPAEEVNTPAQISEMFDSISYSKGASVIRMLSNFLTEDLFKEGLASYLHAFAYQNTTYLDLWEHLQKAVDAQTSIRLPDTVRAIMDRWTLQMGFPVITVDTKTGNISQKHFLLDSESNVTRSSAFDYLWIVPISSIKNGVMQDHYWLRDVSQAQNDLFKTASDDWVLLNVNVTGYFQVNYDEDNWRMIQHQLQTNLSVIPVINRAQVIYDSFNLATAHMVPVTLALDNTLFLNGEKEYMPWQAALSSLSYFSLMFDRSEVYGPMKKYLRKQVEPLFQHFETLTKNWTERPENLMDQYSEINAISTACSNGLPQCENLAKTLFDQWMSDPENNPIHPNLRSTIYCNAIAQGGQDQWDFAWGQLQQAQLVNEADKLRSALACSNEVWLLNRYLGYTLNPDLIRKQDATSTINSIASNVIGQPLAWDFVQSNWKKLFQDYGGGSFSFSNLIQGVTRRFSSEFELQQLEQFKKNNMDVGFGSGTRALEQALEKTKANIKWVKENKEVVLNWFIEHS
Experimental: as §3

FN (fibronectin) = FN (fibronectin) (Homo sapiens, UniProt P02751); test: as above
Experimental: as §3

COL IV (collagen IV) = test: as above
Experimental: as §3

[2] = test system: angiostatin receptor in tissue sections; test: Angiostatin staining of tissue sections of metastatic human bone marrow; type: binding; conditions: 100 μg/ml rh-angiostatin, anti-angiostatin antibody detection
Experimental: Angiostatin was incubated with tissue sections of metastitic human bone marrow. After washing, the tissue sections were developed with an anti-angiostatin Ab, followed by the corresponding secondary Ab conjugated to peroxidase. […] The staining was specific since only this structure and not other cells were stained.
Anti-human Angiostatin were purchased (R&D Systems: AF226). rhAngiostatin was produced by EntreMed, Inc. (Rockville, Md.). Surgical specimens of human metastases (Bouin-fixed 4-6 h, paraffin-embedded sections, 5-6 μm thick) were adsorbed on polylysine-coated slides. Tissue slides were incubated with 100 μg/ml of rh-angiostatin. The slides were washed 3 times and incubated with anti-angiostatin antibody. The slides were washed again 3 times and bound antibodies were detected using an anti-goat peroxidase-conjugate antibody.

Chain of FN (fibronectin) (P02751 32-2477, species assumed): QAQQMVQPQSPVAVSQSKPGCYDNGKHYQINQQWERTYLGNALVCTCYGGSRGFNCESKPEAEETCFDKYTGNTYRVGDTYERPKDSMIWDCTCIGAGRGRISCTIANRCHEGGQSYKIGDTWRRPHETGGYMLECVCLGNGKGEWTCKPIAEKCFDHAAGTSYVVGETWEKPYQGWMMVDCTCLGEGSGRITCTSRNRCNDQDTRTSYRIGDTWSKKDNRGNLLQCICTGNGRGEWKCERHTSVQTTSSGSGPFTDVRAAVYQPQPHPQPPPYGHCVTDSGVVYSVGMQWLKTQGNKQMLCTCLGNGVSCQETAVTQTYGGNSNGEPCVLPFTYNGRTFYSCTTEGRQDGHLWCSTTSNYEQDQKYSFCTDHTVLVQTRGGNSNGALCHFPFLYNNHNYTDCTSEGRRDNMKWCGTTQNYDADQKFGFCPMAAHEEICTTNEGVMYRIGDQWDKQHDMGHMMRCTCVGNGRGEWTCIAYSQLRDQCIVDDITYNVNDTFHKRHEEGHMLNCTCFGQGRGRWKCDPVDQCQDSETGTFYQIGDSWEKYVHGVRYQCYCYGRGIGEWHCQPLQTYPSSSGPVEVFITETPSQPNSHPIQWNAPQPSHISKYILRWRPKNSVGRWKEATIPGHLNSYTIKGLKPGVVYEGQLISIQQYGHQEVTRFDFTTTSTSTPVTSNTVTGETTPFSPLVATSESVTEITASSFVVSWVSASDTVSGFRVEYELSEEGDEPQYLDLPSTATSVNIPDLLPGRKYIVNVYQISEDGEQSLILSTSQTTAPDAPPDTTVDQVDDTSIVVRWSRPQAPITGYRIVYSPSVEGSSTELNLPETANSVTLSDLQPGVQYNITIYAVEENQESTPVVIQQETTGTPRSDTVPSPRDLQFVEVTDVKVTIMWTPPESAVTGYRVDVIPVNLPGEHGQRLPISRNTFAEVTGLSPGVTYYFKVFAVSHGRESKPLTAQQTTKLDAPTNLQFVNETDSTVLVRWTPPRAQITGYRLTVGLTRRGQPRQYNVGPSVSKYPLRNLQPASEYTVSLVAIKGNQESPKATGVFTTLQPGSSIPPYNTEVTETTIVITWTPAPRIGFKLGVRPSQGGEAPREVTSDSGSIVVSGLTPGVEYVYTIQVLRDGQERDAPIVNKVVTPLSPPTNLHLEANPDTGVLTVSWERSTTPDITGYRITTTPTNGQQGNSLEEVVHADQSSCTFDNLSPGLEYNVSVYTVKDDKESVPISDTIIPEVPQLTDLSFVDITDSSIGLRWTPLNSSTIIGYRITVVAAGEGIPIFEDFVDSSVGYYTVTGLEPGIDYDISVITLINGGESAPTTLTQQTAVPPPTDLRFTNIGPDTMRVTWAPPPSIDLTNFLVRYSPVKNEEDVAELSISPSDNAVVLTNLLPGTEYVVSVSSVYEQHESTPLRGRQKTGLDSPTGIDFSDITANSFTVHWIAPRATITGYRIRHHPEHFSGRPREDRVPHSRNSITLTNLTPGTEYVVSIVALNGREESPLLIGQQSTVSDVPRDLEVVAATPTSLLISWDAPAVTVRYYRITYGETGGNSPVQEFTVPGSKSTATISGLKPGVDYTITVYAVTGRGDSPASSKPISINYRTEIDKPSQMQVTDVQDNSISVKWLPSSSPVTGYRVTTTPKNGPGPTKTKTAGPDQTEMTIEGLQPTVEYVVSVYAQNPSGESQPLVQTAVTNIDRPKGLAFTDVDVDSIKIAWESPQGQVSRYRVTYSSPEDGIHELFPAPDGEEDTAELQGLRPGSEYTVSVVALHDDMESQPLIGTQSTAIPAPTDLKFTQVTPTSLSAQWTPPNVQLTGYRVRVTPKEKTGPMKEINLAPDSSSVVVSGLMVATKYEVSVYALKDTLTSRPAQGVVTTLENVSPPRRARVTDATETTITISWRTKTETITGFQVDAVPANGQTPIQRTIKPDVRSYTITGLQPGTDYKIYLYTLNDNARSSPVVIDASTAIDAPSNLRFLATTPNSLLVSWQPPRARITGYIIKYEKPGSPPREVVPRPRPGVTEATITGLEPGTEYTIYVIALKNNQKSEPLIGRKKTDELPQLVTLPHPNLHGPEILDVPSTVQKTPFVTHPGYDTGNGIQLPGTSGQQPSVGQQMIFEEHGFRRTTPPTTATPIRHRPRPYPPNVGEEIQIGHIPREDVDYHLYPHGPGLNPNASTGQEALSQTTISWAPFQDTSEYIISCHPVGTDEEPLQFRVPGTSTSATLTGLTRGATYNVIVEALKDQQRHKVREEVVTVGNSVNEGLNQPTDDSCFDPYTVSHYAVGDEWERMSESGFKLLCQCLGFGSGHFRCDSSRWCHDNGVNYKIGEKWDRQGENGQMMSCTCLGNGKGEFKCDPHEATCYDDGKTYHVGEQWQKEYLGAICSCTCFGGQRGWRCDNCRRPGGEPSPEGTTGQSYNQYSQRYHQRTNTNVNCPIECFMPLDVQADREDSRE
T1 sequence (P07996 19-1170): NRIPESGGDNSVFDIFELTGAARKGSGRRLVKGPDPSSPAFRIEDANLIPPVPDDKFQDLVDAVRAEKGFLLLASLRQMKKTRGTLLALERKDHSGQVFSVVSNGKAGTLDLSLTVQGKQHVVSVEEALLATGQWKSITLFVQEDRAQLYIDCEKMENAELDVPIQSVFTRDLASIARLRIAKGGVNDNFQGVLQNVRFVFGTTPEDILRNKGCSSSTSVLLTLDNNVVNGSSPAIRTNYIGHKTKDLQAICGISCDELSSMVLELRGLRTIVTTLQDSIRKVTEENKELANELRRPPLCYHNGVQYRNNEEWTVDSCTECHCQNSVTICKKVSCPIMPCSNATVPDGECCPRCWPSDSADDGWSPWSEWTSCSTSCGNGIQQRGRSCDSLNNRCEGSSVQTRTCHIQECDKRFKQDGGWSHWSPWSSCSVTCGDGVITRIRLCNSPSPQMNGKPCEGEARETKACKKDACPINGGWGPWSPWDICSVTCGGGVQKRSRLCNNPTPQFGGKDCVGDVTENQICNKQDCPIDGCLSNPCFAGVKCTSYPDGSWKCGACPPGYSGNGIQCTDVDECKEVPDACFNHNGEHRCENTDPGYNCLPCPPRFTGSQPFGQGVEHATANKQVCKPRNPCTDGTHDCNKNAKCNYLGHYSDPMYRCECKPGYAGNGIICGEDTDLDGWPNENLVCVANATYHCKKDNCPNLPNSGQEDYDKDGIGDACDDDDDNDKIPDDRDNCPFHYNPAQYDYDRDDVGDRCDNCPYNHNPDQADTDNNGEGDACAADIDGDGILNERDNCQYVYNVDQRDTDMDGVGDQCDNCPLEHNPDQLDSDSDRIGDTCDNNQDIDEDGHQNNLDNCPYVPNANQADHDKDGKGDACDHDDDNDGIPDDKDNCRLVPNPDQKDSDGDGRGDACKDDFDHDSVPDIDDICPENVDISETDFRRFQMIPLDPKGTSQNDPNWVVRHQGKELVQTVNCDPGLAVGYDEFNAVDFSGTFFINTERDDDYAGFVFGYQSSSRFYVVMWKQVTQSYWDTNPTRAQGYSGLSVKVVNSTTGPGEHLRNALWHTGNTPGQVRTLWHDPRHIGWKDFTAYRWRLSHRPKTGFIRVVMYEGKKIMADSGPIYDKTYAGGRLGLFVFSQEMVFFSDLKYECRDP
T3 sequence (P14210 32-728): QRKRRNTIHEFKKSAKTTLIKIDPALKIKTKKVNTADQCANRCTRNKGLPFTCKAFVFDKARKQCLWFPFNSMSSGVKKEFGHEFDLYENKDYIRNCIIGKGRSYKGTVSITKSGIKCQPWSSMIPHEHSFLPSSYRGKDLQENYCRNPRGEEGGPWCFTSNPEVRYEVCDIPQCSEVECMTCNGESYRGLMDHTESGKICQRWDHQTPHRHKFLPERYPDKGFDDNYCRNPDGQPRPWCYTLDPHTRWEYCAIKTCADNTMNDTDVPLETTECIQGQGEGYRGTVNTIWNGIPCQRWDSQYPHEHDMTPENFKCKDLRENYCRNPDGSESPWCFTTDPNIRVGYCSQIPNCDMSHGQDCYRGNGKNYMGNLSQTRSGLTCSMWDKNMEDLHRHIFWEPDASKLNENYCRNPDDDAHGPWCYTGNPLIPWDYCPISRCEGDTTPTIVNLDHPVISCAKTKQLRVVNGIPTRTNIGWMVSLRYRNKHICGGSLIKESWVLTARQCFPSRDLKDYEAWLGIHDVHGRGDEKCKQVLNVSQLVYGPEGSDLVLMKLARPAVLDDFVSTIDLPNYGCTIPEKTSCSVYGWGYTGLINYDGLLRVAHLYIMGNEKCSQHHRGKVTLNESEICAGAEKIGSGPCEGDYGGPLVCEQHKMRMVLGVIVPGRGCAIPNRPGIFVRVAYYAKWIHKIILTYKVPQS

CDCRGDCFC [RGD4C peptide] was tested, and the “inhibition of RGD-4C-β-gal phage transduction” value (MDA-MB435 cells) was “greater than 99%”.

For CTTHWGFTLC, the “inhibition of HWGF-β-gal phage transduction” value (KS1767 cells) was “greater than 90%”.

B1: angiostatin: rh-Angiostatin produced by EntreMed, Inc. (protein)
chain: VYLSECKTGNGKNYRGTMSKTKNGITCQKWSSTSPHRPRFSPATHPSEGLEENYCRNPDNDPQGPWCYTTDPEKRYDYCDILECEEECMHCSGENYDGKISKTMSGLECQAWDSQSPHAHGYIPSKFPNKNLKKNYCRNPDRELRPWCFTTDPNKRWELCDIPRCTTPPPSSGPTYQCLKGTGENYRGNVAVTVSGHTCQHWSAQTPHTHNRTPENFPCKNLDENYCRNPDGKRAPWCHTTNSQVRWEYCKIPSCDSSPV
In the case of B1, the “binding of angiostatin to coated protein” value (Thrombospondin 1 (TSP-1)) is reported as “binds”, the “binding of angiostatin to coated protein” value (LN (laminin)) is reported as “not” and the “binding of angiostatin to coated protein” value (VN (vitronectin)) is reported as “not”. The “binding of angiostatin to coated protein” value [1] was “binds”, the “binding of angiostatin to coated protein” value (CD13 (Aminopeptidase N)) was “binds” and the “binding of angiostatin to coated protein” value (FN (fibronectin)) was “not”. For the same molecule, the “binding of angiostatin to coated protein” value (COL IV (collagen IV)) was “not” and the “staining of tissue sections” value [2] was “vessel-like”.
